Experimental data from article PMC5828360 (PLoS ONE, 2018).
Bridges are numbered along the chain shown (N, C = ends). [ ]: non-standard residue; d: D form. The star is where a group is joined. Pen = CC(C)(S)[C@H](N)C(=O)O; Thz = O=C(O)[C@@H]1CSCN1; Propionyl = CCC(=O)*

Biological target: T1, recombinant mouse LDLR (His-tagged), extracellular domain (mouse, UniProt P35951 22-790)
T1 construct: mouse low-density lipoprotein receptor, extracellular domain; immobilised on a NiHC sensor chip; in the functional rows it stands for the endogenous LDLR of the mouse; also called mLDLR; murine LDLR; source: bought: Sino Biological
Test: SPR; hLDLR or mLDLR (His-tagged) immobilised on a NiHC sensor chip at 35-60 fmol/mm^2; Biacore T200, 25°C; 50 mM HEPES-NaOH pH7.4, 150 mM NaCl, 0.005% Tween-20, 50μM EDTA; single-cycle kinetics; 1:1 Langmuir model
Conditions: both partners purified

T1 sequence (P35951 22-790): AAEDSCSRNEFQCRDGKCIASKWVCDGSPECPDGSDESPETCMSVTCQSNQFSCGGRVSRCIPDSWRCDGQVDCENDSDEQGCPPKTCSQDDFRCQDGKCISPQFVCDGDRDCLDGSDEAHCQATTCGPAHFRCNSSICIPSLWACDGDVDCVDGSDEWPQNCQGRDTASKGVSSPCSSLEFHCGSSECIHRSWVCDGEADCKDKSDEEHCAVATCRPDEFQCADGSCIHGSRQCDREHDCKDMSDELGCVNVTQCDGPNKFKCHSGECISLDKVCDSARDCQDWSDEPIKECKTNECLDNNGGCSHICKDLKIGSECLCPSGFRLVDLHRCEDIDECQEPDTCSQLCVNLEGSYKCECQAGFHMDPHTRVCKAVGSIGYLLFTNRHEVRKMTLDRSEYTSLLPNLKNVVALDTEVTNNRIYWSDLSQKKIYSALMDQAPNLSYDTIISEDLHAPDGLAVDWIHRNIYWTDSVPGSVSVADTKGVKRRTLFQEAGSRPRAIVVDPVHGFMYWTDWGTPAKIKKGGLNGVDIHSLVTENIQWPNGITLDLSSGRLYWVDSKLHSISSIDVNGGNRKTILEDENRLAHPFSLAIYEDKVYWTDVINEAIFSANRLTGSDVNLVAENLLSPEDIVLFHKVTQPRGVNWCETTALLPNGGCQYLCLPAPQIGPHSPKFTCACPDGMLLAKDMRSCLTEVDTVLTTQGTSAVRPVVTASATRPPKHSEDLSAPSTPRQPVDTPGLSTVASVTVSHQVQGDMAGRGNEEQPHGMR

| Kd | Binder |
| --- | --- |
| 280 ± 33 nM | Propionyl-CMPRLRGC-NH2 (disulfide 1-8 (inferred), 8-residue truncation of VH411; source: synthetic peptide) [VH434 synthetic cyclic peptide] |
| 233 ± 24 nM | Propionyl-[dC]MPRLRGC-NH2 (disulfide 1-8, printed cMPRLRGC, lower case c = (D)-Cys; also called VH0445; source: synthetic peptide) [VH445 synthetic cyclic peptide] |
| 36 ± 1 nM | Propionyl-[dC]M[Thz]RLRG[Pen]-NH2 (disulfide 1-8) [VH4127 synthetic cyclic peptide] |
